Source: article PMC6303191
pKd: −log10 of the molar value.

Columns and labels:
[1] = target: VRC01 UCA (human); experiment: SPR
[2] = target: VRC01 UCA; experiment: BLI; conditions: read at the end of association (300 s), read off a plot

Sequence of VRC01 UCA (human) (heavy, as listed by the source, chain 1 of 2): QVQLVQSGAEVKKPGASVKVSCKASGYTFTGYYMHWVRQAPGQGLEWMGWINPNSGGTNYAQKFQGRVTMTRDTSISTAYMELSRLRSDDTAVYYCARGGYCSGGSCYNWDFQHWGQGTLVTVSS
Sequence of VRC01 UCA (human) (light, as listed by the source, chain 2 of 2): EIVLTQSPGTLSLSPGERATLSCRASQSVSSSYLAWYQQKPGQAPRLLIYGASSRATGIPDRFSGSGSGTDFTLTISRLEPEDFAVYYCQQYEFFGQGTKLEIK

Substance: TM4ΔV1-3 (monomer) (domain or fragment)
- pKd [1]: < 4.00

Substance: TM4ΔV1-3 (24-mer) D268R; E370A
- response ([2]; VRC01 UCA IgG x 24-mer, parent: est. 0.68): 0 nm

Substance: TM4ΔV1-3 (heptamer) D368R; E370A
- response ([2]; VRC01 UCA IgG x heptamer, parent: est. 0.43): 0 nm

Substance: BG505 SOSIP v4.1-GT1 trimer (from UniProt Q2N0S6 1-860) (complex)
- pKd [1]: 5.52
- koff [1]: 0.018 s⁻¹
- kon [1]: 8000 M⁻¹ s⁻¹
